From patent publication US20140237632A1 (UNIVERSITY OF CHICAGO, published 2014)

B1: DsRed.T3 (other)
chain: MASSEDVIKEFMRFKVRMEGSVNGHEFEIEGEGEGRPYEGTQTAKLKVTKGGPLPFAWDILSPQFQYGSKVYVKHPADIPDYKKLSFPEGFKWERVMNFEDGGVVTVTQDSSLQDGCFIYKVKFIGVNFPSDGPVMQKKTMGWEPSTERLYPRDGVLKGEIHKALKLKDGGHYLVEFKSIYMAKKPVQLPGYYYVDSKLDITSHNEDYTIVEQYERTEGRHHLFL
notes: Fluorescent protein variant, purified with a hexahistidine tag from E. coli; Entered only for its self-association (tetramer); not shown: N-terminal hexahistidine tag (pQE31) and polylinker upstream of the start codon, carrying P(-4)L
B2: DsRed Round 4 variant (other)
chain: MASSEDVIKEFMRFKVRMEGSVNGHEFEIEGEGEGRPYEGTQTAKLKVTKGGPLPFAWDILSPQFQYGSKVYVKHPADIPDYKKLSFPEGFKWERVMNFEDGGVVTVTQDSSLQDGCFIYKVKFIGVNFPSDGPVMQKKTMGWEASTERLYPRDGVLKGEIHKALKLKDGGHYLVEFKSIYMAKKPVQLPGYYYVDSKLDITSHNEDYTIVEQYERTEGRHHLFL
notes: Round 3 variant plus R2A, K5E and N6D; also called R4; not shown: N-terminal hexahistidine tag (pQE31) and polylinker upstream of the start codon, carrying P(-4)L
B3: DsRed.T4 (other)
chain: MASSEDVIKEFMRFKVRMEGSVNGHEFEIEGEGEGRPYEGTQTAKLKVTKGGPLPFAWDILSPQFQYGSKVYVKHPADIPDYKKLSFPEGFKWERVMNFEDGGVVTVTQDSSLQDGCFIYKVKFIGVNFPSDGPVMQKKTMGWEPSTERLYPRDGVLKGEIHKALKLKDGGHYLVEFKSIYMAKKPVQLPGYYYVDSKLDITSHNEDYTIVEQYERAEGRHHLFL
notes: as for B1

Assays:
[1] = target: the molecule itself; test: self-association; FRET in spectra and nondenaturing SDS-PAGE
[2] = target: the molecule itself; test: self-association; nondenaturing SDS-PAGE
Procedure: FIG. 4. Decreasing the net charge near the N terminus of DsRed reduces aggregation of the protein. (A) Nondenaturing SDS-PAGE of purified DsRed1 (WT), the Round 1 variant (R1), the Round 3 variant (R3), the Round 4 variant (R4), DsRed.T1 (T1), DsRed.T3 (T3) and DsRed.T4 (T4). 1 μg of each purified DsRed variant was mixed with SDS-containing sample buffer on ice and immediately electrophoresed at 4° C. in a 10% poly-acrylamide gel, followed by staining with Coomassie Blue. WT* and T4*: Additional aliquots of DsRed1 and DsRed.T4 were denatured by boiling prior to electrophoresis. MW: broad range prestained protein standard (Bio-Rad). (B) To measure the solubilities of the fluorescent proteins in E. coli, cells carrying pREP4 plus pQE31-based expression vectors encoding DsRed1, DsRed2, the Round 3 variant, the Round 4 variant, or EGFP were grown to an OD₆₀₀ of 0.5, induced with IPTG for 7 h, then lysed with B-PER II and centrifuged for 20 min at 27,000×g. […] The bound antibody was detected using the ECL-Plus kit (Amersham) and a Molecular Dynamics Storm 860 phosphorimager. For each fluorescent protein, a dilution series from the bacterial extract was analyzed, and a sample within the linear range for the detection system was chosen. The percentage of each protein in the supernatant fraction was then quantified. […]

| Protein | binding result [1] | binding result [2] |
| --- | --- | --- |
| B1 | binds | – |
| B2 | – | binds |
| B3 | binds | – |
